# Molecular target: C3 convertase complex (UniProt P01024 23-1663; P00751 260-764)
# Experiment: cell-based or functional assay
# Wherever C3 convertase activity % of the control is given: test concentration or dose not given here.
# C3 convertase complex, sequence (P01024 23-1663, chain 1 of 2): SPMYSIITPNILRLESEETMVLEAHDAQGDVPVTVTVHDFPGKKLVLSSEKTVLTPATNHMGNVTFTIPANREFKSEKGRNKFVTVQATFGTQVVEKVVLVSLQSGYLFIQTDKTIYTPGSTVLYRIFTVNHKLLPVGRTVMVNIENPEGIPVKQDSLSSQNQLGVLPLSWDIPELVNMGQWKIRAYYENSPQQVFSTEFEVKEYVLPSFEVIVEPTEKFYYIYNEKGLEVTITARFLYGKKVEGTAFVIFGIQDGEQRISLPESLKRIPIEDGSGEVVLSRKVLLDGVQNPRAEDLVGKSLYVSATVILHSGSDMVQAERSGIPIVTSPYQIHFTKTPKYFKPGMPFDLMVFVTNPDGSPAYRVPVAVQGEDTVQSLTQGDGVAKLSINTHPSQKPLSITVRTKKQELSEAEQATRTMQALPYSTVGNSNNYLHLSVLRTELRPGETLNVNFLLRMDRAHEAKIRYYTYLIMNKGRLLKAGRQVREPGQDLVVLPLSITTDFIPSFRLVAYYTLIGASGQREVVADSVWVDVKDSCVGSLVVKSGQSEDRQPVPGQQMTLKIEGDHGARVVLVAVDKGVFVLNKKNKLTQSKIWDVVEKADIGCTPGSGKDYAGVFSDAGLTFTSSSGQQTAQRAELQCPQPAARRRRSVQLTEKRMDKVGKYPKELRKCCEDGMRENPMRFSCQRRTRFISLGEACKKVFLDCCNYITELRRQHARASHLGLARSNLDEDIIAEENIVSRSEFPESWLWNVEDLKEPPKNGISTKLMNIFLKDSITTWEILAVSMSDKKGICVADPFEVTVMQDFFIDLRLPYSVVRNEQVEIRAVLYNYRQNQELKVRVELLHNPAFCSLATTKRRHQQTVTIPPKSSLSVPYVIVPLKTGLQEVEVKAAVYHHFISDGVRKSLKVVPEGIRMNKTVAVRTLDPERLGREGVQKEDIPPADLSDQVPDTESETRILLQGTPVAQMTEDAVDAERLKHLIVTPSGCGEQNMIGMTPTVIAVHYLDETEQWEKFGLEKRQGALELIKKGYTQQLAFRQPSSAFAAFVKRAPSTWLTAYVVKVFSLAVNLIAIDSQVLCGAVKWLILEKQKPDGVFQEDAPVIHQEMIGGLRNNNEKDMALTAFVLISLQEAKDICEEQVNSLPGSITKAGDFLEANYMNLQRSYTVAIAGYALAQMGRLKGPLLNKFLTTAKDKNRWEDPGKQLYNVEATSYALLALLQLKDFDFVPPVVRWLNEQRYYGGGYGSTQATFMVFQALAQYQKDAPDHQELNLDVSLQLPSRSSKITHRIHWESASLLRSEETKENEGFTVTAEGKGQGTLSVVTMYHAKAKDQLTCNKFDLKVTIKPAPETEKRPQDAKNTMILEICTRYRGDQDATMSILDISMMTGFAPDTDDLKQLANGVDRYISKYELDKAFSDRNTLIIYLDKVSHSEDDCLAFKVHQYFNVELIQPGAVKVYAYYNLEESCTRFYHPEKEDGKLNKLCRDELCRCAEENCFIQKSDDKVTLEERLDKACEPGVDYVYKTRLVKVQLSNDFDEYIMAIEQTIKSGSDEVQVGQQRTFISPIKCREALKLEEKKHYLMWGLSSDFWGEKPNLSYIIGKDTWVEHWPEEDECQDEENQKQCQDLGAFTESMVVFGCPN
# C3 convertase complex, sequence (P00751 260-764, chain 2 of 2): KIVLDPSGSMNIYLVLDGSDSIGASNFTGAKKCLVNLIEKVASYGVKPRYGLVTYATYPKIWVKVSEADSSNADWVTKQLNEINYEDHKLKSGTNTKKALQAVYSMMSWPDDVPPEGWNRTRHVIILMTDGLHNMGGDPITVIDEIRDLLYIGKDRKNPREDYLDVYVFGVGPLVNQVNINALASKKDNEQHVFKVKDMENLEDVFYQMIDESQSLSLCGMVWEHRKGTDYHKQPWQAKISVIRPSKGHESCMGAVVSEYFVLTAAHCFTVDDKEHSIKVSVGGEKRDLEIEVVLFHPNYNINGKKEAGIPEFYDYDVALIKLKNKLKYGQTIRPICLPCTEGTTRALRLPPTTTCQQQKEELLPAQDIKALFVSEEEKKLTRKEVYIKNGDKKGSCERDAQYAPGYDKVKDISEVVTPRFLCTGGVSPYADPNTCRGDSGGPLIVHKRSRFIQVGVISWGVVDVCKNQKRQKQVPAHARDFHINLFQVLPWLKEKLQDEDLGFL
C3 convertase activity % of the control,C3 convertase activity IC50 [µg/mL],Binder
15 % of the control,0.618,pCEP4-1NT4-14CT20 (other) EDCNELPPRRNTEILTGSWSDQTYPEGTQAIYKCRPGYRSLGNVIMVCRKGEWVALNPLRKCQKRPCGHPGDTPFGTFTLTGGNVFEYGVKAVYTCNEGYQLLGEINYRECDTDGWTNDIPICEVVKCLPVTAPENGKIVSSAMEPDREYHFGQAVRFVCNSGYKIEGDEEMHCSDDGFWSKEKPKCVEISCKSPDVINGSPISQKIIYKENERFQYKCNMGYEYSERGDAVCTESGWRPLPSCEEKSGASGCPPPPQIPNSHNMTTTLNYRDGEKVSVLCQENYLIQEGEEITCKDGRWQSIPLCVEKIPCSQPPQIEHGTINSSRSSQESYAHGTKLSYTCEGGFRISEENETTCYMGKWSSPPQCEGLPCKSPPEISHGVVAHMSDSYQYGEEVTYKCFEGFGIDGPAIAKCLGEKWSHPPSCIKTDCLSLPSFENAIPMGEKKDVYKAGEQVTYTCATYYKMDGASNVTCINSRWTGRPTCRDTSCVNPPTVQNAYIVSRQMSKYPSGERVRYQCRSPYEMFGDEEVMCLNGNWTEPPQCKDSTGKCGPPPPIDNGDITSFPLSVYAPASSVEYQCQNLYQLEGNKRITCRNGQWSEPPKCLHPCVISREIMENYNIALRWTAKQKLYSRTGESVEFVCKRGYRLSSRSHTLRTTCWDGKLEYPTCAKRGGSGHHHHHH
15 % of the control,0.442,pCEP4-1NT7-16CT20 (other) EDCNELPPRRNTEILTGSWSDQTYPEGTQAIYKCRPGYRSLGNVIMVCRKGEWVALNPLRKCQKRPCGHPGDTPFGTFTLTGGNVFEYGVKAVYTCNEGYQLLGEINYRECDTDGWTNDIPICEVVKCLPVTAPENGKIVSSAMEPDREYHFGQAVRFVCNSGYKIEGDEEMHCSDDGFWSKEKPKCVEISCKSPDVINGSPISQKIIYKENERFQYKCNMGYEYSERGDAVCTESGWRPLPSCEEKSCDNPYIPNGDYSPLRIKHRTGDEITYQCRNGFYPATRGNTAKCTSTGWIPAPRCTLKPCDYPDIKHGGLYHENMRRPYFPVAVGKYYSYYCDEHFETPSGSYWDHIHCTQDGWSPAVPCLRKCYFPYLENGYNQNYGRKFVQGKSIDVACHPGYALPKAQTTVTCMENGWSPTPRCIRVKTGASGCKSPPEISHGVVAHMSDSYQYGEEVTYKCFEGFGIDGPAIAKCLGEKWSHPPSCIKTDCLSLPSFENAIPMGEKKDVYKAGEQVTYTCATYYKMDGASNVTCINSRWTGRPTCRDTSCVNPPTVQNAYIVSRQMSKYPSGERVRYQCRSPYEMFGDEEVMCLNGNWTEPPQCKDSTGKCGPPPPIDNGDITSFPLSVYAPASSVEYQCQNLYQLEGNKRITCRNGQWSEPPKCLHPCVISREIMENYNIALRWTAKQKLYSRTGESVEFVCKRGYRLSSRSHTLRTTCWDGKLEYPTCAKRGGSGHHHHHH

# Reference: patent publication US20170190753A1 (LABORATOIRE FRANCAIS DU FRACTIONNEMENT ET DES …, published 2017)
